In the DeepSol protein solubility set:

Experiment: soluble on expression in E. coli; label from the status in PepcDB or PDB records

| Sequence | soluble on expression in E. coli |
| --- | --- |
| MRGSHHHHHHGSPGLQEFMAATGANAEKAESHNDCPVRLLNPNIAKMKEDILYHFNLTTSRHNFPALFGDVKFVCVGGSPSRMKAFIRCVGAELGLDCPGRDYPNICAGTDRYAMYKVGPVLSVSHGMGIPSISIMLHELIKLLYYARCSNVTIIRIGTSGGIGLEPGTVVITEQAVDTCFKAEFEQIVLGKRVIRKTDLNKKLVQELLLCSAELSEFTTVVGNTMCTLDFYEGQGRLDGALCSYTEKDKQAYLEAAYAAGVRNIEMESSVFAAMCSACGLQAAVVCVTLLNRLEGDQISSPRNVLSEYQQRPQRLVSYFIKKKLSKA | soluble |
| MRGSHHHHHHGSRVMVIGGDGYCGWATALHLSKKNYEVCIVDNLVRRLFDHQLGLESLTPIASIHDRISRWKALTGKSIELYVGDICDFEFLAESFKSFEPDSVVHFGEQRSAPYSMIDRSRAVYTQHNNVIGTLNVLFAIKEFGEECHLVKLGAMGEYGTPNIDIEEGYITITHNGRTDTLPYPKQASSFYHLSKVHDSHNIAFTCKAWGIRATDLNQGVVYGVKTDETEMHEELRNRLDYDAVFGTALNRFCVQAAVGHPLTVYGKGGQTRGYLDIRDTVQCVEIAIANPAKAGEFRVFNQFTEQFSVNELASLVTKAGSKLGLDVKKMTVPNPRVEAEEHYYNAKHTKLMELGLEPHYLSDSLLDSLLNFAVQFKDRVDTKQIMPSVSWKKIGVKTKSMTT | soluble |
| MRGSHHHHHHGSTMDIKPAFGTNQEDYASYIMNGIIKWGDPVTRVLDDGELLVQQTKNSDRTPLVSVLLEGPPHSGKTALAAKIAEESNFPFIKICSPDKMIGFSETAKCQAMKKIFDDAYKSQLSCVVVDDIERLLDYVPIGPRFSNLVLQALLVLLKKAPPQGRKLLIIGTTSRKDVLQEMEMLNAFSTTIHVPNIATGEQLLEALELLGNFKDKERTTIAQQVKGKKVWIGIKKLLMLIEMSLQMDPEYRVRKFLALLREEGASPLDFK | soluble |
| MRGSHHHHHHGSVEYTPWLIAGLGNPGNKYYGTRHNVGFEMVDRIAAEEGITMNTEQSKSLLGIGSIGEVPVLVVKPQSYMNYSGEAIGPLAAYYQVPLRHILLIYDDTSLPNGVLRLQKKGGHGRHNGLQNVIEHLDGRREFPRLSIGIGSPPGKMDPRAFLLQKFSSEERVQIDTALEQGVDAVRTLVLKGFSGSTERFNLVQKYKFHRV | soluble |
| MRGSHHHHHHTDPALRAKKIAIVGAGPTGIYTLFSLLQQQTPLSISIFEQADEAGVGMPYSDEENSKMMLANIASIEIPPIYCTYLEWLQKQEDSHLQRYGVKKETLHDRQFLPRILLGEYFRDQFLRLVDQARQQKFAVAVYESCQVTDLQITNAGVMLATNQDLPSETFDLAVIATGHVWPDEEEATRTYFPSPWSGLMEAKVDACNVGIMGTSLSGLDAAMAVAIQHGSFIEDDKQHVVFHRDNASEKLNITLLSRTGILPEADFYCPIPYEPLHIVTDQALNAEIQKGEEGLLDRVFRLIVEEIKFADPDWSQRIALESLNVDSFAQAWFAERKQRDPFDWAEKNLQEVERNKREKHTVPWRYVILRLHEAVQEIVPHLNEHDHKRFSKGLARVFIDNYAAIPSESIRRLLALREAGIIHILALGEDYKMEINESRTVLKTEDNSYSFDVFIDARGQRPLKVKDIPFPGLREQLQKTGDEIPDVGEDYTLQQPEDIRGRVAFGALPWLMHDQPFVQGLTACAEIGEAMARAVVKPASRARRRLSFDGLCGR | soluble |
| MRGSHHHHHHTDPALRAKKIPCVMMRGGTSRGAFLLAEHLPEDQTQRDKILMAIMGSGNDLEIDGIGGGNPLTSKVAIISRSSDPRADVDYLFAQVIVHEQRVDTTPNCGNMLSGVGAFAIENGLIAATSPVTRVRIRNVNTGTFIEADVQTPNGVVEYEGSARIDGVPGTAAPVALTFLNAAGTKTGKVFPTDNQIDYFDDVPVTCIDMAMPVVIIPAEYLGKTGYELPAELDADKALLARIESIRLQAGKAMGLGDVSNMVIPKPVLISPAQKGGAINVRYFMPHSCHRALAITGAIAISSSCALEGTVTRQIVPSVGYGNINIEHPSGALDVHLSNEGQDATTLRASVIRTTRKIFSGEVYLPGLCGR | soluble |
| MRGSPHHHHHHGSAKNVVLDHDGNLDDFVAMVLLASNTEKVRLIGALCTDADCFVENGFNVTGKIMCLMHNNMNLPLFPIGKSAATAVNPFPKEWRCLAKNMDDMPILNIPENVELWDKIKAENEKYEGQQLLADLVMNSEEKVTICVTGPLSNVAWCIDKYGEKFTSKVEECVIMGGAVDVRGNVFLPSTDGTAEWNIYWDPASAKTVFGCPGLRRIMFSLDSTNTVPVRSPYVQRFGEQTNFLLSILVGTMWAMCTHCELLRDGDGYYAADALTAAYVVDQKVANVDPVPIDVVVDKQPNEGATVRTDAENYPLTFVARNPEAEFFLDMLLRSARAC | soluble |
| MRGSPRTKDRLAALKAAVSDEEDVEEVAVQVDSGGGFMEEFFEQVEEIRAMIDKISDNVDAVKKKHSDILSAPQTDDQMKEELEELMTDIKRTANKVRGKLKTIELNIEQEEHSNKSSADLRIRKTQYSTISRKFVEVMSDYNTTQIDYRDRCKARIKRQMEITGRTTTNEELEDMLESG | soluble |
| MRIALFTETFLPKIDGIVTRLCQTVRHLQRNGHQVLVVAPDGGLDHYEGARIYGVSGFPLPLYPELKLALPRPAIGKALAAFEPDLIHVANPAVLGLAGLYYAQKFQLPLVASYHTHLPQYLKYYGLGFLEELLWFLLRWGHNCAQLNLCTSTAMVAELKAHGIRHLDLWQRGVDVELFHPQRQSQEMRHFLSQGHPEAPLLLYVGRLSAEKEIEQIKPILEQIPQARLALVGNGPHREALEKHFAGTPTHFVGYLRGERLAGAFASADVFIFPSRTETLGLVLLEAMAAGCPVVAANSGGIPDIVTDGVNGFLFDPADPTGAITACQRLFDSPDDRETLRQNARQEAERWSWAAATQQLEQYYRSVLPVPQRDVALSHLEHHHHHH | not soluble |
| MRIEAAELRILELPLKFRFETSFGVQTKRTILLLRLFGEGLEGLGEGVMERLPLYREETVAGARYLLEEVFLPRVLGRDLPNPEALREALAPFRGNPMAKAVLEMAFFDLWAKALGRPLWQVLGGVRQAVEVGVSLGIQPSVEDTLRVVERHLEEGYRRIKLKIKPGWDYEVLKAVREAFPEATLTADANSAYSLANLAQLKRLDELRLDYIEQPLAYDDLLDHAKLQRELSTPICLDESLTGAEKARKAIELGAGRVFNVKPARLGGHGESLRVHALAESAGIPLWMGGMLEAGVGRAHNLHLATLPGFTKPGDVSSASRYWEEDIVEEALEAKDGLMPVPEGVGIGVHLKLPFVERVTLWQRYMSAS | soluble |
| MRIGIISVGPGNIMNLYRGVKRASENFEDVSIELVESPRNDLYDLLFIPGVGHFGEGMRRLRENDLIDFVRKHVEDERYVVGVCLGMQLLFEESEEAPGVKGLSLIEGNVVKLRSRRLPHMGWNEVIFKDTFPNGYYYFVHTYRAVCEEEHVLGTTEYDGEIFPSAVRKGRILGFQFHPEKSSKIGRKLLEKVIECSLSRR | soluble |
| MRIGLFGGSFDPIHLGHLLAASQAQEVLCLDRVLFVVAARPPHKVPVAPAEARYEMTLLAVAEDPRFTVSRLELDRPGPSYTVDTLREARRLFPQDELFFITGADAYRDVLTWKEGERLPEYATLVAVARPGYPLEEAPLPVVPLFVPEVGISSTEIRRRLKEGRSVRYWVPRAVEVYIEKHGLYR | soluble |
| MRILQLILLALATGLVGGETRIIKGFECKPHSQPWQAALFEKTRLLCGATLIAPRWLLTAAHCLKPRYIVHLGQHNLQKEEGCEQTRTATESFPHPGFNNSLPNKDHRNDIMLVKMASPVSITWAVRPLTLSSRCVTAGTSCLISGWGSTSSPQLRLPHTLRCANITIIEHQKCENAYPGNITDTMVCASVQEGGKDSCQGDSGGPLVCNQSLQGIISWGQDPCAITRKPGVYTKVCKYVDWIQETMKNN | soluble |
| MRINEMALHEKPRERLITYGAKSLSNVELLAILLNTGRKGFSSIDIANELLKQQSTIRDLKKLSINDLLKIKGIGLYKAVILQAAFELGERINSTSTFDKVQITHPSDVASLMMSTMKDLEQEHFVVLLLNSKNIVTKQAWVYKGTLNSSIIHPREVFNIAIRESSNSIIVVHNHPSGDVTPSKEDITTTYRLKECGDILGINLLDHIIIGDNKFTSLVEAGYFDK | not soluble |
| MRIQIRYDDIDYLGHVNNARFLAYFEIGRLSYMKRFFNTRSAKDISMVIARAELDFERSVMFEDDIFVRTWISRVGNRSFDFSYTIEDDGGTVFCRGRTVNVFVEDGKPVSVPDFVKDLVISDVKT | not soluble |
